The test deals with SARS-CoV-2 Omicron RBD protein (SARS-CoV-2 Omicron (BA.1), S371L | S373P | S375F). Kind of test: SPR.

Where only a bound is given, the exact number is not on record here.

B1: STS165 (full-length IgG form) (antibody, V domains shown)
VH: EVQLVESGGGVVRPGGSLRLSCAASGFTFDDYGMSWVRQAPGKGLEWVSGINWNGGSTGYADSVKGRFTISRDNAKNSLYLQMNSLRAEDTALYHCARVGYCGGDCYSLSLAGFPDYWGQGTLVTVSS
VL: not shown
As to B1, the “fold decrease of binding affinity against WT RBD” value worked out at 3 fold.

B2: STS165 Fab form (Fab, V domains shown)
VH: EVQLVESGGGVVRPGGSLRLSCAASGFTFDDYGMSWVRQAPGKGLEWVSGINWNGGSTGYADSVKGRFTISRDNAKNSLYLQMNSLRAEDTALYHCARVGYCGGDCYSLSLAGFPDYWGQGTLVTVSS
VL: not shown
As to B2, the “fold decrease of binding affinity against the IgG form” value is more than 50 fold.
